Measured values as given in US20120034160A1 (AbbVie / Abbott, published 2012).
Positions count from the first letter of the chain named.

T1: Recombinant Human IL-17 (human, UniProt Q16552 20-155, limits assumed)
T1 sequence (looked up): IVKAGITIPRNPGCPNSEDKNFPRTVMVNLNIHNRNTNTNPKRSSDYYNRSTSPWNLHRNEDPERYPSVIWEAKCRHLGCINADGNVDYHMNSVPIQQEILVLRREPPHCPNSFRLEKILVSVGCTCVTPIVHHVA

B1: DVD1640 (bispecific antibody, human IgG1, kappa)
heavy: not shown
light: EIVLTQSPDFQSVTPKEKVTITCRASQNIGSELHWYQQKPDQSPKLLIKYASHSISGVPSRFSGSGSGTDFTLTINGLEAEDAATYYCHQSDTLPHTFGQGTKVDIKRTVAAPDIQMTQSPSSLSASVGDRVTITCRASGNIHNYLTWYQQTPGKAPKLLIYNAKTLADGVPSRFSGSGSGTDYTFTISSLQPEDIATYYCQHFWSIPYTFGQGTKLQITRTVAAPSVFIFPPSDEQLKSGTASVVCLLNNFYPREAKVQWKVDNALQSGNSQESVTEQDSKDSTYSLSSTLTLSKADYEKHKVYACEVTHQGLSSPVTKSFNRGEC
notes: V1/V2 vectors: wild type hIgG1, kappa
B2: DVD1639 (bispecific antibody, human IgG1, kappa)
heavy: not shown
light: DIQMTQSPSSLSASVGDRVTITCRASGNIHNYLTWYQQTPGKAPKLLIYNAKTLADGVPSRFSGSGSGTDYTFTISSLQPEDIATYYCQHFWSIPYTFGQGTKLQITRTVAAPEIVLTQSPDFQSVTPKEKVTITCRASQNIGSELHWYQQKPDQSPKLLIKYASHSISGVPSRFSGSGSGTDFTLTINGLEAEDAATYYCHQSDTLPHTFGQGTKVDIKRTVAAPSVFIFPPSDEQLKSGTASVVCLLNNFYPREAKVQWKVDNALQSGNSQESVTEQDSKDSTYSLSSTLTLSKADYEKHKVYACEVTHQGLSSPVTKSFNRGEC
notes: as for B1
B3: DVD1641 (bispecific antibody, human IgG1, kappa)
heavy: not shown
light: B2 light
notes: as for B1
B4: DVD1636 (bispecific antibody, human IgG1, kappa)
heavy: not shown
light: EIVLTQSPDFQSVTPKEKVTITCRASQDIGSELHWYQQKPDQPPKLLIKYASHSTSGVPSRFSGSGSGTDFTLTINGLEAEDAGTYYCHQTDSLPYTFGPGTKVDIKRTVAAPDTVVTQSPAFLSVTPGEKVTITCITSTDIDVDMNWYQQKPDQPPKLLISQGNTLRPGVPSRFSSSGSGTDFTFTISSLEAEDAATYYCLQSDNLPLTFGQGTKLEIKRTVAAPSVFIFPPSDEQLKSGTASVVCLLNNFYPREAKVQWKVDNALQSGNSQESVTEQDSKDSTYSLSSTLTLSKADYEKHKVYACEVTHQGLSSPVTKSFNRGEC
notes: DVD-Ig: outer AB274, inner AB271; V1/V2 vectors: wild type hIgG1, kappa
B5: DVD1635 (bispecific antibody, human IgG1, kappa)
heavy: not shown
light: DTVVTQSPAFLSVTPGEKVTITCITSTDIDVDMNWYQQKPDQPPKLLISQGNTLRPGVPSRFSSSGSGTDFTFTISSLEAEDAATYYCLQSDNLPLTFGQGTKLEIKRTVAAPEIVLTQSPDFQSVTPKEKVTITCRASQDIGSELHWYQQKPDQPPKLLIKYASHSTSGVPSRFSGSGSGTDFTLTINGLEAEDAGTYYCHQTDSLPYTFGPGTKVDIKRTVAAPSVFIFPPSDEQLKSGTASVVCLLNNFYPREAKVQWKVDNALQSGNSQESVTEQDSKDSTYSLSSTLTLSKADYEKHKVYACEVTHQGLSSPVTKSFNRGEC
notes: DVD-Ig: outer AB271, inner AB274; V1/V2 vectors: wild type hIgG1, kappa
B6: DVD1645 (bispecific antibody, human IgG1, kappa)
heavy: not shown
light: B5 light with D141N, P156S, T168I, G197A, T204S, S206T, Y209H, P213Q
notes: DVD-Ig: outer AB271, inner AB275; V1/V2 vectors: wild type hIgG1, kappa
B7: DVD1633 (bispecific antibody, human IgG1, kappa)
heavy: not shown
light: DTQVTQSPSSLSASVGDRVTITCITSTDIDVDMNWYQQKPGKPPKLLISQGNTLRPGVPSRFSSSGSGTDFTFTISSLQPEDFATYYCLQSDNLPLTFGQGTKLEIKRTVAAPEIVLTQSPDFQSVTPKEKVTITCRASQDIGSELHWYQQKPDQPPKLLIKYASHSTSGVPSRFSGSGSGTDFTLTINGLEAEDAGTYYCHQTDSLPYTFGPGTKVDIKRTVAAPSVFIFPPSDEQLKSGTASVVCLLNNFYPREAKVQWKVDNALQSGNSQESVTEQDSKDSTYSLSSTLTLSKADYEKHKVYACEVTHQGLSSPVTKSFNRGEC
notes: DVD-Ig: outer AB270, inner AB274; V1/V2 vectors: wild type hIgG1, kappa
B8: DVD1643 (bispecific antibody, human IgG1, kappa)
heavy: not shown
light: B7 light with D141N, P156S, T168I, G197A, T204S, S206T, Y209H, P213Q
notes: DVD-Ig: outer AB270, inner AB275; V1/V2 vectors: wild type hIgG1, kappa
B9: DVD1637 (bispecific antibody, human IgG1, kappa)
heavy: not shown
light: B7 light with D1E, Q3T
notes: DVD-Ig: outer AB272, inner AB274; V1/V2 vectors: wild type hIgG1, kappa
B10: DVD1647 (bispecific antibody, human IgG1, kappa)
heavy: not shown
light: B7 light with D1E, Q3T, D141N, P156S, T168I, G197A, T204S, S206T, Y209H, P213Q
notes: DVD-Ig: outer AB272, inner AB275; V1/V2 vectors: wild type hIgG1, kappa
B11: DVD1634 (bispecific antibody, human IgG1, kappa)
heavy: not shown
light: EIVLTQSPDFQSVTPKEKVTITCRASQDIGSELHWYQQKPDQPPKLLIKYASHSTSGVPSRFSGSGSGTDFTLTINGLEAEDAGTYYCHQTDSLPYTFGPGTKVDIKRTVAAPDTQVTQSPSSLSASVGDRVTITCITSTDIDVDMNWYQQKPGKPPKLLISQGNTLRPGVPSRFSSSGSGTDFTFTISSLQPEDFATYYCLQSDNLPLTFGQGTKLEIKRTVAAPSVFIFPPSDEQLKSGTASVVCLLNNFYPREAKVQWKVDNALQSGNSQESVTEQDSKDSTYSLSSTLTLSKADYEKHKVYACEVTHQGLSSPVTKSFNRGEC
notes: DVD-Ig: outer AB274, inner AB270; V1/V2 vectors: wild type hIgG1, kappa
B12: DVD1638 (bispecific antibody, human IgG1, kappa)
heavy: not shown
light: B11 light with D114E, Q116T
notes: DVD-Ig: outer AB274, inner AB272; V1/V2 vectors: wild type hIgG1, kappa

target: T2, Recombinant Human IL-1β (human, UniProt P01584 117-269); experiment: cell-based or functional assay

| C-Terminal VD IL-1β Neutralization Assay EC50 | N-Terminal VD IL-1β Neutralization Assay EC50 | Binder |
| --- | --- | --- |
| 2.85 nM |  | B1 |
|  | 0.0113 nM | B2 |
|  | 0.0786 nM | B3 |
| 27.1 nM |  | B4 |
|  | 0.24 nM | B5 |
|  | 0.417 nM | B6 |
|  | 0.371 nM | B7 |
|  | 0.465 nM | B8 |
|  | 0.552 nM | B9 |
|  | 0.152 nM | B10 |
| > 12 nM |  | B11 |
| > 20 nM |  | B12 |

target: T1, Recombinant Human IL-17; experiment: cell-based or functional assay

| N-terminal VD IL-17 Neutralization Assay EC50 | C-terminal VD IL-17 Neutralization Assay EC50 | Binder |
| --- | --- | --- |
| 0.0061 nM |  | B1 |
|  | 2.61 nM | B2 |
|  | 1.87 nM | B3 |
| 0.0075 nM |  | B4 |
|  | 0.127 nM | B5 |
|  | 0.15 nM | B6 |
|  | 0.146 nM | B7 |
|  | 0.121 nM | B8 |
|  | 0.0271 nM | B9 |
|  | 0.34 nM | B10 |
| 0.0241 nM |  | B11 |
| 0.0069 nM |  | B12 |

target: T2, Recombinant Human IL-1β; experiment: Biacore SPR; C-terminal VD
Outline: (§1)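 Captured antibody or DVD-Ig bound antigen (10−200 nM) in HBS-EP at 25° C. KD = koff/kon from a 1:1 global fit.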

| Kd | koff | kon | Binder |
| --- | --- | --- | --- |
| 0.09 nM | 1.2e-05 s⁻¹ | 130000 M⁻¹ s⁻¹ | B1 |
| 0.6 nM | 0.00063 s⁻¹ | 1e+06 M⁻¹ s⁻¹ | B4 |
| 0.63 nM | 0.00055 s⁻¹ | 870000 M⁻¹ s⁻¹ | B11 |
| 0.63 nM | 0.00085 s⁻¹ | 1.3e+06 M⁻¹ s⁻¹ | B12 |

target: T1, Recombinant Human IL-17; experiment: Biacore SPR; C-terminal VD
Outline: as §1

| Kd | koff | kon | Binder |
| --- | --- | --- | --- |
| ≤ 0.0028 nM | ≤ 1e-06 s⁻¹ | 370000 M⁻¹ s⁻¹ | B2 |
| 0.27 nM | 2.2e-05 s⁻¹ | 84000 M⁻¹ s⁻¹ | B3 |
| 0.14 nM | 4.9e-05 s⁻¹ | 360000 M⁻¹ s⁻¹ | B5 |
| 0.65 nM | 8.1e-05 s⁻¹ | 120000 M⁻¹ s⁻¹ | B6 |
| < 0.0063 nM | < 1e-06 s⁻¹ | 160000 M⁻¹ s⁻¹ | B7 |
| 0.52 nM | 9.4e-05 s⁻¹ | 180000 M⁻¹ s⁻¹ | B8 |
| ≤ 0.0025 nM | < 1e-06 s⁻¹ | 230000 M⁻¹ s⁻¹ | B9 |
| 0.53 nM | 9e-05 s⁻¹ | 170000 M⁻¹ s⁻¹ | B10 |

target: T2, Recombinant Human IL-1β; experiment: Biacore SPR; N-terminal VD
Outline: as §1

| Kd | koff | kon | Binder |
| --- | --- | --- | --- |
| 0.045 nM | 5.6e-05 s⁻¹ | 1.2e+06 M⁻¹ s⁻¹ | B2 |
| 0.018 nM | 1.9e-05 s⁻¹ | 1e+06 M⁻¹ s⁻¹ | B3 |
| 0.06 nM | 0.00045 s⁻¹ | 7.6e+06 M⁻¹ s⁻¹ | B5 |
| 0.08 nM | 0.00056 s⁻¹ | 7e+06 M⁻¹ s⁻¹ | B6 |
| 0.063 nM | 0.00057 s⁻¹ | 9e+06 M⁻¹ s⁻¹ | B7 |
| 0.074 nM | 0.00048 s⁻¹ | 6.5e+06 M⁻¹ s⁻¹ | B8 |
| 0.075 nM | 0.00059 s⁻¹ | 7.9e+06 M⁻¹ s⁻¹ | B9 |
| 0.083 nM | 0.00059 s⁻¹ | 7.1e+06 M⁻¹ s⁻¹ | B10 |

target: T1, Recombinant Human IL-17; experiment: Biacore SPR; N-terminal VD
Outline: as §1

| Kd | koff | kon | Binder |
| --- | --- | --- | --- |
| 0.017 nM | 6.5e-05 s⁻¹ | 3.8e+06 M⁻¹ s⁻¹ | B1 |
| 0.0046 nM | 1.9e-05 s⁻¹ | 4.1e+06 M⁻¹ s⁻¹ | B4 |
| 0.0052 nM | 1.9e-05 s⁻¹ | 3.7e+06 M⁻¹ s⁻¹ | B11 |
| 0.0068 nM | 2.7e-05 s⁻¹ | 3.9e+06 M⁻¹ s⁻¹ | B12 |
